{"source": "patent US20070098693A1", "about": "“Methods for enhancing engraftment of purified hematopoietic stem cells in allogenic recipients” (priority 2003, published 2007)", "key": {"CD8^+/TCR^− FC [1]": {"test_system": "CD8^+/TCR^− FC", "assay": "CpG ODN / LPS stimulation of sorted FC, cytokine production by ELISA / multiplex", "type": "cell-based, mice", "details": "FC from 10 day FL-cultured BM, overnight culture, medium", "description": "(§1) CpG oligodeoxynucleotides (ODN) stimulation. Sorted p-preDC or FC were cultured for 18 hours at 10^5 cells/200 μL in 96 well round-bottom culture plates in culture medium in the presence or absence of Toll-like receptor (TLR)-9 ligand, CPG-ODN 1668 (TCCATGACGTTCCGATGCT) (SEQ ID NO. 1) (GibcoBRL Custom Primers) at 1 μM, TLR-4 ligand, LPS from Escherichia coli (Sigma, MO, USA) at 10 μg/ml, as previously described^30. CpG or LPS-treated or untreated cells were subsequently assayed for: 1) the expression of DC activation/maturation cell surface markers by FACS, 2) their survival rate by 7AAD staining, or 3) morphological appearance by Wright Giemsa staining on cytospins. The supernatant of these cultures were collected for analysis of the production of different cytokines by ELISA.\nCytokine production by ELISA. Briefly, the cell-free supernatants of 12H, 18H, or 24H cultured cells (FC or p-preDC,) with or without CpG ODN or LPS were collected and kept frozen at −80° C. The amount of cytokine produced was determined by 1) ELISA kits for mouse IFN-α (R&D system) and mouse TNF-α (Biosource International), and 2). Multiplex for MIP 1αCCL3), GM-CSF, MCP-1 (CCL2), RANTES (CCL5), IFN-γ, IL-1β, IL-2, IL-4, IL-5, IL-6, IL-10, IL-12p70, IL-9, and IL13 on 18 hour incubation supernatants from three different experiments performed by Linco Diagnostic Services (St. Charles, Mo.)."}, "CD8^+/TCR^− FC [2]": {"test_system": "CD8^+/TCR^− FC", "assay": "Activation marker expression on sorted FC after 18 h culture (FACS)", "type": "cell-based, mice", "details": "FC from 10 day FL-cultured BMC, overnight culture, medium", "excerpt": "(§2) mAbs and Flow cytometry. The following mAbs (all from BD Biosciences Pharmingen, San Diego, Calif., except those labeled with APC-cy-7 from eBioscience, San Diego, Calif.) were used. To sort CD8^+/TCR^− FC: anti-CD8α (53-6.7) PE-labeled, anti-TCR β chain (H57-597) and anti-TCR γδ chain (GL3) FITC-labeled. To sort B220^+/CD11c^dim/CD11b^− p-preDC: anti-CD11b (M1/70) APC-labeled, anti-CD45R/B220 (RA3-6B2) APC-Cy7-labeled, anti-CD11c (HL3) PE-labeled, and anti-TCR β chain (H57-597), anti-TCR γδ chain (GL3), anti-CD14 (rmC5-3), anti-CD19 (1D3), anti-Pan-NK cells (DX5), and anti-NK1.1 (PK136), all FITC-labeled. To sort HSC: anti-TCR β chain (H57-597), anti-TCR γδ chain (GL3), anti-Ly-6G (Gr-1), anti-CD11b, Mac1 (M1/70), anti-CD8α (53-6.7) and anti-CD45R/B220 (RA3-6B2), all FITC-labeled, anti-Ly-6A/E (Sca-1) (E13-161.7) PE-labeled and anti-c-Kit (CD117) (2B8) APC-labeled. To restain the sorted FC population: purified anti-CD16/CD32 (FcγIII/II receptors) (2.4G2), anti-CD11c (HL3), anti-CD4 (RM4-5) and anti-CD19 (1D3) all APC-labeled, anti-CD45R/B220 (RA3-6B2) PerCP-labeled, and anti-Pan-NK cells (DX5), anti-NK1.1 (PK136), anti-CD14 (rmC5-3), and anti-Ly-6G (Gr-1) FITC-labeled. To analyze the activation state: anti-CD80 (B7-1) ([…]), anti-CD86 (B7-2) ([…]), and anti-I-A^b (Aβ^b) (AF6-120.1) FITC-labeled. For PBL typing and multilineage chimerism: anti-H-2 K^b (AF6-88.5) PE or FITC-labeled, anti-H-2K^k (36-7-5) PE or FITC-labeled, anti-TCR β chain (H57-597), anti-NK1.1 (PK136), anti-Ly-6G (Gr-1), anti-CD11b, Mac1 (M1/70) and anti-CD45R/B220 (RA3-6B2) all FITC-labeled. Detection of dead cells after cell culture was determined by using a 7-Amino-actinomycin D (7-AAD) (Molecular Probes, Eugene, Oreg.) followed by FACS analysis.\nas §1"}, "[3]": {"test_system": "B220^+/CD11c^dim/CD11b^− p-preDC", "assay": "Activation marker expression on sorted p-preDC after 18 h culture (FACS)", "type": "cell-based, mice", "details": "p-preDC from 10 day FL-cultured BMC versus fresh p-preDC", "excerpt": "as §2, §1"}, "CD8^+/TCR^− FC [4]": {"test_system": "CD8^+/TCR^− FC", "assay": "Cell death of sorted FC after overnight culture (7AAD staining)", "type": "cell-based, mice", "details": "FC from 10 day FL-cultured BM, medium, n=3; versus 53.6% fresh cells", "excerpt": "as §2, §1"}, "[5]": {"test_system": "B220^+/CD11c^dim/CD11b^− p-preDC", "assay": "Cell death of sorted p-preDC after overnight culture (7AAD staining)", "type": "cell-based, mice", "details": "versus fresh cells (data not shown)", "excerpt": "as §2\nCpG oligodeoxynucleotides (ODN) stimulation. […]"}, "FC from cultured BM": {"test_system": "FC from cultured BM", "assay": "Culture of BMC with FL for 10 days, expansion of FC", "type": "cell-based, mice", "details": "10 days in culture with FL, n=8", "description": "(§3) Culture of BMC with FL. BMC were resuspended at 10^6 cells/ml in culture medium consisting of RPMI 1640 (Gibco), 10% FBS (Gibco), 1 mM Sodium pyruvate (Gibco), 10 mM Hepes (Gibco), 2 mM L-Glutamine (Gibco), Penicillin 100 U/mL, 100 μg/mL Streptomycin, (Gibco), and 10^−5 M 2-mercaptoethanol (Sigma), supplemented with human FL (100 ng/ml, generous gift from Amgen, Seattle, Wash.). Every 5 days of culture, half of the medium was replaced by fresh cytokine-supplemented culture medium according to a protocol previously described^30.\n(§4) Cell sorting. HSC, FC, and p-preDC were sorted as previously described^9,30,49. HSC were sorted for Sca-1^+c-Kit^+Lin^− expression, FC were sorted for CD8α^+/TCRαβ^−/TCRγδ^− expression, and p-preDC were sorted for CD11c^dim/CD11b^−/B220^+ expression. Briefly, BMC were incubated with Abs on ice for 30 minutes, cells were washed twice in the CSM, filtered, and resuspended to a final concentration of 2.5×10^6 cells/mL in the CSM for cell sorting. The isolation of the cell populations was performed on FACSVantage Flow Cytometers (Becton Dickinson). The populations of interest were isolated from the live lymphoid gate, and after reanalysis, only cells with a purity of >94% were used."}, "p-preDC from cultured BM": {"test_system": "p-preDC from cultured BM", "assay": "Culture of BMC with FL for 10 days, expansion of p-preDC", "type": "cell-based, mice", "details": "10 days in culture with FL, n=4", "description": "as §3, §4"}, "FL-derived p-preDC": {"test_system": "FL-derived p-preDC", "assay": "Cytokine production by sorted FL-derived p-preDC (ELISA)", "type": "cell-based, mice", "details": "p-preDC from FL bone marrow culture, overnight culture", "description": "as §3\nas §1, with “The supernatant of these cultures were collected for analysis of the production of different cytokines by ELISA.” left out\nCytokine production by ELISA. […] The amount of cytokine produced was determined by 1) ELISA kits for mouse IFN-α (R&D system) and mouse TNF-α (Biosource International), and 2). […]"}, "FC population in PB": {"test_system": "FC population in PB", "assay": "Flt3-ligand treatment of mice, subtypes in the mobilized FC population in PB", "type": "in vivo, B10.BR mice", "description": "Flt3-ligand treatment of mice. Recombinant human Flt-3 Ligand (FL, kindly provided by Amgen, Seattle, Wash.) was diluted in sterile, filtered, endotoxin-free water at a concentration of 100 μg/ml. Donor B10.BR mice were subcutaneously injected with 10 μg of FL daily for 10 days. B10.BR control mice were injected with saline only. At the end of the treatment, peripheral blood was harvested and collected into heparinized tubes.\nPhenotypic analysis of sorted FC. Sorted FC isolated from fresh BMC or FL-mobilized peripheral blood, with a purity ranging from 94 to 98%, were incubated with Fc receptor block (anti-CD16/CD32) before staining with different lineage specific markers, including anti-CD4, CD11c, B220, NK1.1, DX5, CD14, Gr1, and CD19. During reanalysis of sorted FC, less than 1% of contaminating T cells (TCRαβ FITC and TCRγδFITC) were detected, which therefore allowed the use of FITC-conjugated specific markers for further analysis. To validate the specificity of staining, various conjugates of the same antibody were used, including CD11c, CD4 and CD19 conjugated to FITC and APC, as well as B220 conjugated with PerCP, APC, or FITC (not shown). To analyze the subtypes of DC in the sorted FC population, sorted FC were blocked and stained with CD11b FITC, CD11c APC and B220 PerCP mAbs to determine the presence of myeloid pre-DC (CD11c^+/B220^−/CD11b^+), p-preDC (CD11c^dim/B220^+/CD11b^−), the common precursor population for DC (CD11c^+/B220^+/CD11b^+) or mature lymphoid DC (CD8α^+/CD11c^+/CD11b^−/B220^−). The cells were washed twice in CSM, and analyzed on a FACS Calibur using Cell Quest Software (Becton Dickinson, Mountainview, Calif.)."}, "[6]": {"details": "mice treated with FL for 10 days (data not shown)"}, "[7]": {"details": "mice treated with FL for 10 days, sorted FC from PB"}}, "note": "“And” between values parts separate entries of the source, which are not always exact repeats. Identical values can stand only once."}
{"molecule": "FL: Recombinant human Flt-3 Ligand (FL, kindly provided by Amgen, Seattle, Wash.) (protein, UniProt P49771 27-235, looked up) Fms-related tyrosine kinase 3 …: TQDCSFQHSPISSDFAVKIRELSDYLLQDYPVTVASNLQDEELCGGLWRLVLAQRWMERLKTVAGSKMQGLLERVNTEIHFVTKCAFQPPPSCLRFVQTNISRLLQETSEQLVALKPWITRQNFSRCLELQCQPDSSTLPPPWSPRPLEATAPTAPQPPLLLLLLLPVGLLLLAAAWCLHWQRTRRRTPRPGEQVPPVPSPQDLLLVEH", "values": [{"measurement": "IFN-α production by FL-derived FC", "setting": "CD8^+/TCR^− FC [1]", "result": "significant amounts of IFN-α"}, {"measurement": "CD80 expression on FL-derived FC", "setting": "CD8^+/TCR^− FC [2]; versus 11% of fresh FC", "result": 47, "unit": "%"}, {"measurement": "CD86 expression on FL-derived FC", "setting": "CD8^+/TCR^− FC [2]; versus 17% of fresh FC", "result": 51, "unit": "%"}, {"measurement": "Class II expression on FL-derived FC", "setting": "CD8^+/TCR^− FC [2]; versus 18% of fresh FC", "result": 40, "unit": "%"}, {"measurement": "CD80 level on FL-derived p-preDC", "setting": "[3]", "result": "upregulated"}, {"measurement": "CD86 level on FL-derived p-preDC", "setting": "[3]", "result": "upregulated"}, {"measurement": "Class II level on FL-derived p-preDC", "setting": "[3]", "result": "upregulated"}, {"measurement": "death of FL-derived FC after overnight culture", "setting": "CD8^+/TCR^− FC [4]", "result": 71, "unit": "%"}, {"measurement": "death of FL-derived p-preDC after overnight culture", "setting": "[5]", "result": "more sensitive to death"}, {"measurement": "increase in FL-derived FC from cultured BM", "setting": "FC from cultured BM", "result": 7, "unit": "fold"}, {"measurement": "increase in FL-p-preDC from cultured BM", "setting": "p-preDC from cultured BM", "result": 17, "unit": "fold"}, {"measurement": "IFN-α production by FL-derived p-preDC", "setting": "FL-derived p-preDC", "result": "also produced IFN-α"}, {"measurement": "expansion of FC in PB", "setting": "FC population in PB; FL-treatment of mice", "result": "significantly expands"}, {"measurement": "FL-FC in the PB expressing CD14", "setting": "FC population in PB; [6]", "result": "none"}, {"measurement": "FL-FC in the PB expressing CD19", "setting": "FC population in PB; [6]", "result": "none"}, {"measurement": "CD11c^bright population (mature DC) in FL-FC", "setting": "FC population in PB; [7]", "result": 20, "unit": "%"}, {"measurement": "CD11c^dim population (p-preDC phenotype) in FL-FC", "setting": "FC population in PB; [7]", "result": "60% and 60-65%"}, {"measurement": "FL-FC in the PB expressing CD11c", "setting": "FC population in PB; [7]", "result": "85-90%"}, {"measurement": "FL-FC in the PB expressing NK1.1", "setting": "FC population in PB; [7]", "result": "5-7%"}]}
